Data: patent publication US20210340246A1 (GlaxoSmithKline, published 2021)

Target: T1, human IL-5 (human, UniProt P05113 20-134)
T1 construct: The IL-5 reagent of the SPR assay is not described further; also called interleukin-5; soluble IL-5
Experiment: standard surface plasmon resonance assays

B1: mepolizumab (monoclonal anti-IL-5 antibody; unstressed composition / control samples) (antibody, human IgG1, kappa)
heavy: not shown
light: not shown
modifications: N-terminal Gln cyclised to pyroglutamate (typically >95.0%); C-terminal K449 clipped (typically >98.0%); N299 N-glycosylated
notes: Batches MDS1 T04L003S and MDS2 T0413010; also called Oxidation Control; Light Exposure Control
  Kd: < 0.0229 nM
